Results on 3 molecules are retold here after PMC12730228, “Targeted NanoBiT Screening Identifies a Novel Interaction Between SNAPIN and Influenza A Virus M1 Protein” (Biology, 2025).

In assay [1] the target is SmN-SNAPIN (human) (UniProt O95295). The experiment in a line: split reporter (BiFC, NanoBiT).
For assay [2], the target named is T1, SmN-SNAPIN (human, UniProt O95295 1-136).
T1 construct: also called SNAPIN-SmBiT; not shown: SmBiT, N-terminal, kept
T1 sequence (looked up): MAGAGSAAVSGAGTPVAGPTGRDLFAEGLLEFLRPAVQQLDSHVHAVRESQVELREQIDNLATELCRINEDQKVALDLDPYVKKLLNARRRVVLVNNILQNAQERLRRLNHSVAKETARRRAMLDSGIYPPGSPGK
Briefly: split reporter (BiFC, NanoBiT). As to conditions: partners not purified.

For assay [3], the target named is T2, Flag-M1 (influenza A virus A/WSN/33 (H1N1), UniProt P05777 1-252).
T2 construct: also called Flag-tagged M1; M1 protein; not shown: Flag, N-terminal, kept
The experiment in a line: pull-down. As to conditions: both partners purified.

T2 sequence (P05777 whole entry): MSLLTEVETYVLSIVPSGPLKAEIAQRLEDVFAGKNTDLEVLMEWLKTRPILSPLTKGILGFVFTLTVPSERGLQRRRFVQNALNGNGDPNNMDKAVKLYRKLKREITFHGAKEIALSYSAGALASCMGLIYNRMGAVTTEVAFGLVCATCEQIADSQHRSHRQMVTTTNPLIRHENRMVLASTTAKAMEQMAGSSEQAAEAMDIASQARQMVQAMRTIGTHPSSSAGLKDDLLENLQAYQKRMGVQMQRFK

LgN-NS2 (natural protein) came in with a fold signal increase relative to the negative control in assay [1] of 2.37 fold.

B1: LgN-M2 (natural protein)
chain: MSLLTEVETPIRNEWGCRCNDSSDPLVIAANIIGILHLILWILDRLFFKCIYRRFKYGLKRGPSTEGVPESMREEYRKEQQNAVDVDDGHFVNIELE
notes: also called matrix protein 2; not shown: LgBiT, N-terminal, kept
As to B1, the “fold signal increase relative to the negative control” value in assay [2] was 8.62 fold.

B2: GST-SNAPIN (natural protein, human, UniProt O95295 1-136, looked up)
chain: T1 sequence (looked up)
notes: also called GST-tagged SNAPIN
Consider B2, for which the binding result in assay [3] is “binds”.
